The RNAGym collection of RNA variant scans (doi:10.1073/pnas.2313332121)

B1: TPR t1 (parent)
chain: GACCAAUCUGCCCUCAGAGCUCGAGAACAUCUUCGGAUGCAGAGGAGGCAGGCUUCGGUGGCGCGAUAGCGCCAACGUCCUCAACCUCCAAUGCAUCCCACCACAUGAUGAUGCCUGAAGAGCCUUGGUUUUUUG

Variants of: B1
Experiment: polymerase ribozyme fitness, log enrichment relative to wild type (log ratio); higher = more active; in vitro selection for triplet polymerase activity
Summary of the method: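 Fitness is a logarithmic measure of how a genotype enriched relative to the wild type, with replicate averages weighted by inverse variance. The logarithm uses base 2, and enrichment came from Illumina sequencing of input and output libraries. Those libraries were PCR-built, transcribed mutants of each subunit of a heterodimeric triplet polymerase ribozyme, passed through one triplicate in vitro selection round that included frozen incubation at −7 °C, gel excision of extended constructs and streptavidin-bead capture. Genotypes were kept only if they had ≥10 input reads and ≥1 read per output.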

Variant | polymerase ribozyme fitness (log ratio)
C28A A46U U54G C73U C82G A90G C123U | -4.12
A5U C97G C115U G127A | -6.94
G57U G60C | -3.3
G10A G42U C85G | -1.94
G48U C56U | -0.606
G71U U132A | 0.382
A2U A121U | -0.628
A18C A29U | -4.04
U7C C70U C101G | -2.79
C11G A16U G93U A100C C123U | -3.13
G48U C88G U96A | -3.43
G19C G93A C104U U112C | -0.693
A6U G63C C80A | -3.25
C3G C8G C12U C79U G110C U130A | -5.96
C72U C123U | 0.155
G10A C12U U112A | 1.73
U7A G69U C98U | -0.115
G25A G63C | -6.68
G60C G120U | 0.528
C22U C101A G122A | -6.14
U81G U112A | -4.16

Variant | polymerase ribozyme fitness (log ratio)
A6C C22U C62U C79U C99U | -5.96
U32C C40U C124A | 1.21
U21C C101A | -0.445
U9G G61C C102A G122A U125A | -4.92
G47A G51U U55A C98A G113C | -7.22
U21C A84C C124G U131C | 1.43
C79A C82U | -0.745
A75G U112A | 1.59
A2G G52U G69C C86U | -1.64
U9G G48U C88A | -1.04
C80U G93A | -1.52
G44C U54A C82U C114G | -4.01
A46U G63C C76A C85A C115G | -5.34
C11G G47U G63A C79A | -3.91
G10C A27G C40U A121U | 0.906
A66U C79U | -0.834
U55G G69A C73A | -3.04
G93U G122A | -1.55
C13U G45U C82U | -0.895
U21A G71A C88U G93A | -2.14
C8A C12U A46C G93A C115A | 0.651

Variant | polymerase ribozyme fitness (log ratio)
G45U G48A U132C | -1.5
C13G G71C A91U | -3.97
C31A G44U G69A A100C U109G G135U | -6.04
A95G C102U | -1.91
C3A G120A U130C | 0.403
C11U C115U | -1.61
G71A G110U | -2.36
G48U G69A U87A | -6.61
C12U U33G A105U U112G U125A | -7
U9A G36U G120U | 1.67
A2U C13U A50G G63A U112C | -1.43
C8A C62U A118C | -2.69
C4A C13U C101G | -4.23
C4U C12G C15G G117C | 0.829
C8A G47U C49U G110U | -3.49
A43C C49G A84G C115U G135U | -6.22
A5C C28U U59C C123U | -3.1
C20A A29G G36U | -6.08
A6G G10A C11U G61A A100U G128A | -2.69
U116C G127A U130G | -4.14
C3A G25U G58C U59G C97U C123A G135U | -6.86

Variant | polymerase ribozyme fitness (log ratio)
C3U C8G G10U G45C G71U C85A | -2.2
C49U U106A U126A | -2.78
A37C C56G C101A G110U G127U | -4.67
C22G G93U | -3.03
C34A C76A | -4.09
A27U C76U A95G U130G | -4.08
C22U U106G C115U | -6.69
C102U A119G | -0.237
C64U G135U | -0.52
A16U C73U G93C U96A | -4.76
C85U G110C C115U A121G | -6.18
C4G G110U | -2.64
C34A C104U | -2.35
C11U A43G C72G | -2.54
C13A A66U C101A | -4.3
G10A C13U U30C C31A G42U C123A U126G | -5.09
A16G G69U C73A C115U | -1.93
C15G A46G G71A C88G | -5.35
A37C G63U G122U | -2.81
G45U C56U U81G C101G C114A | -5.46
